Measurements published in patent publication US20240279341A1 (Alector, published 2024).

T1: recombinant human MerTK extracellular domain (human, UniProt Q12866 21-505)
T1 construct: also called huMerTK; not shown: PolyHis tag or TEVS/Thrombin/murine IgG2a Fc tag (a DDDDK-tagged commercial protein is also mentioned); which form was t
T1 sequence: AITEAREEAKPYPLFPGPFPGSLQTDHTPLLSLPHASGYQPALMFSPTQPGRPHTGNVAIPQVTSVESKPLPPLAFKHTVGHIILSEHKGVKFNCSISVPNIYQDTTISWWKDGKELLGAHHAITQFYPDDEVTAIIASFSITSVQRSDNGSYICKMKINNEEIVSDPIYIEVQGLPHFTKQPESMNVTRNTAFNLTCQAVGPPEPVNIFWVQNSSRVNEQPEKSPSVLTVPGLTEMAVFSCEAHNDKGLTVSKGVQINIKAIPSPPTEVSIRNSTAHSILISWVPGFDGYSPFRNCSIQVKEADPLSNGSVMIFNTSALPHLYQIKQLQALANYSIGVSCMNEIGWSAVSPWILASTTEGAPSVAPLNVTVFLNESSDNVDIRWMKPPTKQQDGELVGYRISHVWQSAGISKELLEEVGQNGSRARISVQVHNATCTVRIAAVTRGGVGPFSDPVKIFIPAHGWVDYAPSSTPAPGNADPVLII

T2: recombinant cynomolgus MerTK extracellular domain (cynomolgus monkey, UniProt Q12866 21-505 (human entry))
T2 construct: also called cynoMerTK; cyno MerTK; not shown: PolyHis tag or TEVS/Thrombin/murine IgG2a Fc tag
T2 chain: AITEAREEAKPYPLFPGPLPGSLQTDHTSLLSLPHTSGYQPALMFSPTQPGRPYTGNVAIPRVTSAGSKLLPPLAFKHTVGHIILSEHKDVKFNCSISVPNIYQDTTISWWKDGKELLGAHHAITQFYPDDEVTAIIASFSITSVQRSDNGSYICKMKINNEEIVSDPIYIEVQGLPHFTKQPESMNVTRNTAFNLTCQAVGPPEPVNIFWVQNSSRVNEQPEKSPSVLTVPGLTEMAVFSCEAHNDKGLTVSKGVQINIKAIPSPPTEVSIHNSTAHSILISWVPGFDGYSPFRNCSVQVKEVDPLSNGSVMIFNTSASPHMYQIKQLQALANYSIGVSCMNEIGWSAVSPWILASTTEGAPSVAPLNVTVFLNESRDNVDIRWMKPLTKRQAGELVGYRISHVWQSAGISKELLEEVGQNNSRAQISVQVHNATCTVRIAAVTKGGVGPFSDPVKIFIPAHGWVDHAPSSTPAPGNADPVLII

T3: human MerTK on M2c-differentiated human macrophages (human, UniProt Q12866 21-999)
T3 sequence: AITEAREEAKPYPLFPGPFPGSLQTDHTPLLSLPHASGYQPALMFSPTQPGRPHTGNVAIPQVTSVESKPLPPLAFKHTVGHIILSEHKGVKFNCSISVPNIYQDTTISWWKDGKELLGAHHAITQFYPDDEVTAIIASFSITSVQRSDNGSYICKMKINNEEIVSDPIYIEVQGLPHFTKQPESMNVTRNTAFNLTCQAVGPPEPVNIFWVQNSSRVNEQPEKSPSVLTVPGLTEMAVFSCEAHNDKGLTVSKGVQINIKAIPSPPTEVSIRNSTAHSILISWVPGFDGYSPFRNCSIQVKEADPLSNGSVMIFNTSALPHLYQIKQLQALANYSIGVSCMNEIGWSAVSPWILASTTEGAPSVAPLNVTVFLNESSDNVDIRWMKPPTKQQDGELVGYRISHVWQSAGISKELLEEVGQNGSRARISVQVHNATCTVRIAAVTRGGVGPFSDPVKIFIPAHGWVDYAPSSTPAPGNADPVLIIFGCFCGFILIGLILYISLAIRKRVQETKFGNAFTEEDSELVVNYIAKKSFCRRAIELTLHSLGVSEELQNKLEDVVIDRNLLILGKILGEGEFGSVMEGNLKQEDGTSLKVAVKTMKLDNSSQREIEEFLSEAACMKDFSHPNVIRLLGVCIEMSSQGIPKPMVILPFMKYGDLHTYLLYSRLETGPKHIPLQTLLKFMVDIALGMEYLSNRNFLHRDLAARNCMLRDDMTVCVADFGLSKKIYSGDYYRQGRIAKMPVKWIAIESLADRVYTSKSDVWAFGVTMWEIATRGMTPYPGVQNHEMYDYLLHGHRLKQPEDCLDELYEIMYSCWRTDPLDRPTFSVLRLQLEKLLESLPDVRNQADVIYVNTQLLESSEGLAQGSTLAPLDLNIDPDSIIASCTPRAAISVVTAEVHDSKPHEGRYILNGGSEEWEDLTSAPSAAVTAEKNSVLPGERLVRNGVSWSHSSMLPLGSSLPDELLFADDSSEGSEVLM


Legend:
[1] = biological target: T1, recombinant human MerTK extracellular …; assay: SPR (Carterra LSA), antibody immobilized, MerTK ECD as analyte; estimate, fits not ideal for a 1:1 model
Method: (§1) Binding kinetics of bispecific anti-MerTK:anti-PDL1 antibodies of the present disclosure to human, cyno, and murine MerTK were evaluated using a Carterra LSA instrument. […] A HC30 sensor chip (Carterra) was activated using the single channel flow cell with a 7-minute injection of a 1:1:1 mixture of 100 mM MES pH 5.5, 100 mM sulfo-NHS, 400 mM EDC (all reconstituted in MES pH 5.5; 100 μl of each mixed in vial immediately before running assay). After switching to the multi-channel array flow cell, the antibodies were injected over the activated chip in a 96-spot array for 15 minutes. A duplicate injection of the antibodies on a second block of the chip was spotted as before. The remaining unconjugated active groups on the chip were then blocked by injecting 1M Ethanolamine pH 8.5 (Carterra) for 7 minutes using the single channel flow cell.
(§2) After priming with running buffer (HBS-TE, Carterra) with 0.5 mg/ml BSA (Sigma), the immobilized anti-MerTK antibodies were tested for their ability to bind to several forms of recombinant MerTK extracellular domain, including that of human, cynomolgus, and mouse orthologs as described above. Estimates of affinity were generated by injecting each analyte over the entire antibody array using the single channel flow cell. […] Dissociation was followed for 300 seconds before regenerating after each injection with 2×30 seconds of 10 mM Glycine pH2.5. Three buffer blanks were run between each series (one species per series). After all concentrations of all three species of MerTK were injected, a duplicate set of injections was performed, so that each concentration for all three species was injected in widely spaced duplicates. Data were processed and analyzed using NextGenKIT high-throughput kinetics analysis software (Carterra).

[2] = biological target: T2, recombinant cynomolgus MerTK …; assay: as above
Method: as §1, §2

[3] = biological target: T3, human MerTK on M2c-differentiated human …; assay: cell-based or functional assay

Kd [1] [µM] | Kd [2] [µM] | Average IC50 (nM) in the presence of huGas6 (huGas6-mediated pAKT reducing activity) [3] [nM] | Binder
0.05 | 0.06 | 15.3 | monovalent anti-MerTK antibody MTK-16.2 (antibody, V domains shown) VH: QVQLVQSGSELKKPGASVKVSCKASGYTFTNHGMNWVRQAPGQGLEWMGWINTYTGEPTYADDFKGRFVFSLDTSVSTAYLQISSLKAEDTAVYYCARKGVTAARYFDYWGQGTLVTVSS VL: DIQMTQSPSSLSASVGDRVTITCRASQNVRTAVAWYQQKPGKAPKRLIYLASNRHTGVPSRFSGSGSGTEFTLTISNLQPEDFATYYCLQHWNYPLTFGGGTKLEIK
0.05 | 0.06 | 3.22 | bivalent anti-MerTK antibody MTK-16.2 (full IgG) (antibody, V domains shown) VH: QVQLVQSGSELKKPGASVKVSCKASGYTFTNHGMNWVRQAPGQGLEWMGWINTYTGEPTYADDFKGRFVFSLDTSVSTAYLQISSLKAEDTAVYYCARKGVTAARYFDYWGQGTLVTVSS VL: DIQMTQSPSSLSASVGDRVTITCRASQNVRTAVAWYQQKPGKAPKRLIYLASNRHTGVPSRFSGSGSGTEFTLTISNLQPEDFATYYCLQHWNYPLTFGGGTKLEIKR
0.03 | 0.03 | 12.3 | bispecific anti-MerTK MTK-16.2:anti-PDL1 antibody (bispecific antibody, V domains shown) VH 1: QVQLVQSGSELKKPGASVKVSCKASGYTFTNHGMNWVRQAPGQGLEWMGWINTYTGEPTYADDFKGRFVFSLDTSVSTAYLQISSLKAEDTAVYYCARKGVTAARYFDYWGQGTLVTVSS VL 1: DIQMTQSPSSLSASVGDRVTITCRASQNVRTAVAWYQQKPGKAPKRLIYLASNRHTGVPSRFSGSGSGTEFTLTISNLQPEDFATYYCLQHWNYPLTFGGGTKLEIK VH 2: not shown VL 2: not shown
0.002 | 0.003 | 17.9 | monovalent anti-MerTK antibody MTK-33.11 (antibody, V domains shown) VH: QVQLVQSGAEVKKPGASVKVSCKASGYTFTSYWMHWVRQAPGQGLEWIGVIDPSDNYINYNQKFQGRVTMTRDTSTSTVYMELSSLRSEDTAVYYCAREAWTRGYFDYWGQGTLVTVSS VL: DIQMTQSPSSLSASVGDRVTITCQASRSVRNTVAWYQQKPGKAPKLLIYYASNRYTGVPSRFSGSGSGTDFTFTISSLQPEDIATYYCQQDYRSPFTFGQGTKLEIK
0.002 | 0.002 | 1.25 | bivalent anti-MerTK antibody MTK-33.11 (full IgG) (antibody, V domains shown) VH: QVQLVQSGAEVKKPGASVKVSCKASGYTFTSYWMHWVRQAPGQGLEWIGVIDPSDNYINYNQKFQGRVTMTRDTSTSTVYMELSSLRSEDTAVYYCAREAWTRGYFDYWGQGTLVTVSS VL: DIQMTQSPSSLSASVGDRVTITCQASRSVRNTVAWYQQKPGKAPKLLIYYASNRYTGVPSRFSGSGSGTDFTFTISSLQPEDIATYYCQQDYRSPFTFGQGTKLEIKR
0.002 | 0.002 | 9.03 | bispecific anti-MerTK MTK-33.11:anti-PDL1 antibody (bispecific antibody, V domains shown) VH 1: QVQLVQSGAEVKKPGASVKVSCKASGYTFTSYWMHWVRQAPGQGLEWIGVIDPSDNYINYNQKFQGRVTMTRDTSTSTVYMELSSLRSEDTAVYYCAREAWTRGYFDYWGQGTLVTVSS VL 1: DIQMTQSPSSLSASVGDRVTITCQASRSVRNTVAWYQQKPGKAPKLLIYYASNRYTGVPSRFSGSGSGTDFTFTISSLQPEDIATYYCQQDYRSPFTFGQGTKLEIK VH 2: not shown VL 2: not shown
